Results published in publication PMC6520365, “Structural and functional characterization of the PDZ domain of the human phosphatase PTPN3 and its interaction with the human papillomavirus E6 oncoprotein” (Scientific Reports, 2019).

Tests used:
Details in all cases: both partners purified
[1] = target: T1, PDZ domain of the human protein tyrosine phosphatase non-receptor type 3 (PTPN3-PDZ) (human, UniProt P26045-1 504-913, Start 504 is printed. End 597 comes from the 6HKS entity and fits the printed 94 residues (89 non-Pro). GST removed by TEV; any residual tag residues left out.); experiment: NMR titration; unlabeled peptide added stepwise to 15N-labeled PTPN3-PDZ at 95 or 149 μM; 1H,15N HSQC chemical shift perturbations; 15 °C; 50 mM Tris/HCl pH 7.5, 150 mM NaCl, 0.5 mM TCEP; KD from 8 to 14 fitted curves
[2] = target: T1, PDZ domain of the human protein …; experiment: AUC; sedimentation velocity, PTPN3-PDZ at 70 μM with HBVc PBM peptide, 20 °C, 42000 rpm
[3] = target: PTPN3-PDZ_(Next), PDZ domain of human PTPN3 extended at the N-terminus by 15 residues of its wild-type … (human, UniProt P26045-1 489-913, Start 489 is 504 minus the 15 residues printed. End 597 comes from the 6HKS entity (residues 6-114); its GAMGS tag remnant is left out.); experiment: AUC; sedimentation velocity, PTPN3-PDZ_(Next) at 70 μM with PBM peptide, 20 °C, 42000 rpm
[4] = target: HPV18E6 PBM peptide (C-terminal sequence of the human papillomavirus type 18 E6 protein) (human papillomavirus type 18); experiment: NMR titration; unlabeled peptide added stepwise to 15N-labeled PTPN3-PDZ at 95 or 149 μM; 1H,15N HSQC chemical shift perturbations; 15 °C; 50 mM Tris/HCl pH 7.5, 150 mM NaCl, 0.5 mM TCEP; KD from 8 to 14 fitted curves

Sequence of PTPN3-PDZ_(Next), PDZ domain of human PTPN3 extended at the N-terminus by 15 residues of its wild-type … (P26045 489-913): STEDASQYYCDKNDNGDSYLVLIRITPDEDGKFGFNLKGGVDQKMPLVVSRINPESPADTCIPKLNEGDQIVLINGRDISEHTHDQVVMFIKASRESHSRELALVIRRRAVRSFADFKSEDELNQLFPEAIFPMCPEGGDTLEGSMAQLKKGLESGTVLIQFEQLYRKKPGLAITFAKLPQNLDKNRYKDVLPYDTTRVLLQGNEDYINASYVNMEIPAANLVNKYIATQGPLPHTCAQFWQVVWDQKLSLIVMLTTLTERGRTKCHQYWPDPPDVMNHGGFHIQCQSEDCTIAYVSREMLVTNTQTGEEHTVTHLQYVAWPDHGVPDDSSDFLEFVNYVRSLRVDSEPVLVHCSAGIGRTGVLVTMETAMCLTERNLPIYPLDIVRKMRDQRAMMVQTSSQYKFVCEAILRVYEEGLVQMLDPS

Binder | Kd [1] [µM] | stoichiometry N [2] | stoichiometry N [3] | Kd [4] [µM]
SWARVSKETPL (also called MAPK12 PBM; source: synthetic peptide (Fmoc solid phase, Proteogenix)) [p38γ PBM peptide (C-terminal sequence of the MAP kinase p38γ)] | 26 | – | – | –
RRRRSQSRESQC (also called HBV Core PBM; source: synthetic peptide (Fmoc solid phase, Proteogenix)) [HBVc PBM peptide (C-terminal sequence of the hepatitis B virus core protein)] | 29 | 1 | 1 | –
PDZ domain of the human protein tyrosine phosphatase non-receptor type 3 (PTPN3-PDZ) (domain or fragment) GDSYLVLIRITPDEDGKFGFNLKGGVDQKMPLVVSRINPESPADTCIPKLNEGDQIVLINGRDISEHTHDQVVMFIKASRESHSRELALVIRRR | – | – | – | 37
RSSRTRRETQL (Only the last seven residues (TRRETQL) are seen in the crystal; also called PBM of HPV16 E6; source: synthetic peptide (Fmoc solid phase, Proteogenix)) [HPV16E6 PBM peptide (C-terminal sequence of the human papillomavirus type 16 E6 protein)] | 53 | – | 1 | –
